Where no end group is shown, it is not given here.

For test [1], the target named is T1, GFP-KPNB1 full-length (FL) (Homo sapiens (Human), UniProt Q14974 1-876).
T1 construct: the plasmid is GFP-KPNB1 (Euroscarf #P30478); The linker is stated in general for fluorescent protein fusions; also called EGFP-KPNB1; GFP-KPNB1^FL; not shown: GFP/EGFP tag (pEGFP-C1, Clontech)
The test can be described thus: co-IP of GFP-tagged KPNB1 truncations, western blot. The text has this:
FIG. 21A) Schematic domain structure of KPNB1. KPNB1 is comprised of 19 HEAT repeats (H1-19). RanGTP and importin-α interact with H1-8 and H8-19, respectively. FG-Nups bind to two regions of KPNB1, H5-7 and H14-16. FIG. 21B) Lysates from HEK293T cells expressing GFP, GFP-KPNB1 full-length (FL), N-terminal fragments of KPNB1 (H1-9 . . . H1) or the C-terminal fragment of KPNB1 (H10-19) were subjected to immunoprecipitation with GFP-Trap magnetic beads. Whole cell lysates (input) and immunoprecipitates (IP) were subjected to western blot analysis using indicated antibodies. KPNB1 H1-8, the smallest fully active KPNB1 fragment in reducing TDP-43 aggregation, strongly interacts with FG-Nups and Ran, and weakly with importin-al in comparison with full-length KPNB1. FIG. 21C) (Top) Schematic domain structure of KPNB1 H1-8^mNIS harboring four missense mutations (1178A, F217A, Y255A, I263R) in the nucleoporin-interacting site (NIS). (Bottom) Lysates from HEK293T cells expressing GFP, GFP-KPNB1 H1-8^WT or H1-8^mNIS were subjected to immunoprecipitation with GFP-Trap magnetic beads. Whole cell lysates (input) and immunoprecipitates (IP) were subjected to western blot analysis using indicated antibodies. […] Hoechst staining was used to outline nuclei. Scale bar: 5 μm. […] Statistical analysis was performed using one-way ANOVA and Bonferroni's post hoc test (**p<0.01, ***p<0.001, n=4). FIG. 21F) IF of HEK293T cells co-expressing GFP-(GR)₁₀₀ with an empty plasmid (ctrl), FLAG-tagged KPNB1 H1-8^WT or H1-8^mNIS and stained for endogenous TDP-43. Unlike KPNB1 H1-8^mNIS, KPNB1 H1-8^WT prevents the sequestration of endogenous TDP-43 in cytoplasmic GR aggregates. Arrowheads point to cytoplasmic GR aggregates. Hoechst staining was used to outline nuclei. Scale bar: 5 μm.

Another test concerns the target T2, Untagged KPNB1 (Homo sapiens (Human), UniProt Q14974 1-876).
T2 construct: KPNB1 amplified by PCR and cloned into pEGFP-C1 lacking the GFP tag; also called Wildtype KPNB1
Briefly: GFP-Trap IP from HEK293T lysates, western blot. The text has this: FIGS. 29A-29C: Untagged KPNB1 interacts with both the RRM2 and PrLD of TDP-CTF. FIG. 29A) (Left) Lysates from HEK293T cells expressing GFP alone, or untagged KPNB1 with GFP, GFP-TDP-CTF or GFP-TDP43^WT were subjected to immunoprecipitation with GFP-Trap magnetic beads. Whole cell lysates (input) and immunoprecipitates (IP) were subjected to western blot analysis using indicated antibodies. (Right) Quantification of relative KPNB1 levels in IP normalized by KPNB1 levels in input. Statistical analysis was performed using one-way ANOVA and Bonferroni's post hoc test (**p<0.01, ***p<0.001, n=3). […] FIG. 29C) (Left) Lysates from HEK293T cells expressing GFP alone, or untagged KPNB1 with GFP, GFP-TDP-CTF, GFP-TDP-CTF^non-PrLD or GFP-TDP-PrLD were subjected to immunoprecipitation with GFP-Trap magnetic beads. Whole cell lysates (input) and immunoprecipitates (IP) were subjected to western blot analysis using indicated antibodies. (Right) Quantification of relative KPNB1 levels in IP normalized by KPNB1 levels in input. Statistical analysis was performed using one-way ANOVA and Bonferroni's post hoc test (***p<0.001, n=3).
FIGS. 31A-31C: The PrLD of TDP-43 interacts with FG-Nups and KPNB1. FIG. 31A) Immunofluorescence (IF) of HEK293T cells expressing GFP or GFP-TDP-PrLD and stained for endogenous Nup98 and Nup62. TDP-PrLD forms small cytoplasmic foci positive for Nup62. FIG. 31B) IF of HEK293T cells expressing GFP or GFP-TDP-PrLD and stained for endogenous KPNB1. KPNB1 colocalizes with TDP-PrLD foci in the cytoplasm. Hoechst staining was used to outline nuclei. Scale bar: 5 μm. FIG. 31C) Lysates from HEK293T cells expressing GFP or GFP-TDP-PrLD were subjected to immunoprecipitation with GFP-Trap magnetic beads. Whole cell lysates (input) and immunoprecipitates (IP) were subjected to western blot analysis using indicated antibodies. The PrLD of TDP-43 interacts with Nup62, Nup98 and KPNB1, but not with Ran.
HEK293T cells were seeded in 6-well plates and transfected for 48 hours. Cells were then lysed in IP Lysis buffer (Fisher) supplemented with a protease inhibitor cocktail (Roche), and were centrifuged at 15000 rpm for 20 minutes at 4° C. A small aliquot of the recovered supernatant was set aside (input).

The next test concerns the target T3, mCherry-KPNB1 (Homo sapiens (Human), UniProt Q14974 1-876).
T3 construct: mCherry was cloned into GFP-KPNB1; also called mCherry-tagged KPNB1; not shown: mCherry tag (mCherry-C1, Clontech)
Briefly: co-IP with mCherry-KPNB1, western blot. The text has this:
FIG. 30B) Lysates from HEK293T cells co-expressing mCherry-KPNB1 with GFP, GFP-TDP-CTF or GFP-TDP-CTF C-terminal deletion constructs were subjected to immunoprecipitation with RFP-Trap magnetic beads. Whole cell lysates (input) and immunoprecipitates (IP) were subjected to western blot analysis using indicated antibodies. Deletion of amino-acids 230-240 in TDP-CTF reduced its binding to KPNB1. FIG. 30C) Lysates from HEK293T cells co-expressing mCherry-KPNB1 with GFP, GFP-TDP-CTF or GFP-TDP-CTF N-terminal deletion constructs were subjected to immunoprecipitation with RFP-Trap magnetic beads. Whole cell lysates (input) and immunoprecipitates (IP) were subjected to western blot analysis using indicated antibodies. Deletion of amino-acids 230-240 in TDP-CTF reduces its binding to KPNB1. TDP-PrLD weakly interacts with KPNB1. FIG. 30D) (Left) Lysates from HEK293T cells co-expressing mCherry-KPNB1 with GFP, GFP-TDP-CTF^WT or GFP-TDP-CTF^Δ230-240 were subjected to immunoprecipitation with RFP-Trap magnetic beads. […] (Right) Quantification of relative GFP levels in IP normalized by GFP levels in input confirm that GFP-TDP-CTF^Δ230-240 interacts less with mCherry-KPNB1. […] FIG. 30F) Western blot analysis and quantification of insoluble GFP-tagged TDP-CTF^WT or TDP-CTF^Δ230-240 in HEK293T cells expressing mCherry or mCherry-KPNB1. […]

T1 sequence (Q14974 other isoform, or with tags, fused parts or gaps): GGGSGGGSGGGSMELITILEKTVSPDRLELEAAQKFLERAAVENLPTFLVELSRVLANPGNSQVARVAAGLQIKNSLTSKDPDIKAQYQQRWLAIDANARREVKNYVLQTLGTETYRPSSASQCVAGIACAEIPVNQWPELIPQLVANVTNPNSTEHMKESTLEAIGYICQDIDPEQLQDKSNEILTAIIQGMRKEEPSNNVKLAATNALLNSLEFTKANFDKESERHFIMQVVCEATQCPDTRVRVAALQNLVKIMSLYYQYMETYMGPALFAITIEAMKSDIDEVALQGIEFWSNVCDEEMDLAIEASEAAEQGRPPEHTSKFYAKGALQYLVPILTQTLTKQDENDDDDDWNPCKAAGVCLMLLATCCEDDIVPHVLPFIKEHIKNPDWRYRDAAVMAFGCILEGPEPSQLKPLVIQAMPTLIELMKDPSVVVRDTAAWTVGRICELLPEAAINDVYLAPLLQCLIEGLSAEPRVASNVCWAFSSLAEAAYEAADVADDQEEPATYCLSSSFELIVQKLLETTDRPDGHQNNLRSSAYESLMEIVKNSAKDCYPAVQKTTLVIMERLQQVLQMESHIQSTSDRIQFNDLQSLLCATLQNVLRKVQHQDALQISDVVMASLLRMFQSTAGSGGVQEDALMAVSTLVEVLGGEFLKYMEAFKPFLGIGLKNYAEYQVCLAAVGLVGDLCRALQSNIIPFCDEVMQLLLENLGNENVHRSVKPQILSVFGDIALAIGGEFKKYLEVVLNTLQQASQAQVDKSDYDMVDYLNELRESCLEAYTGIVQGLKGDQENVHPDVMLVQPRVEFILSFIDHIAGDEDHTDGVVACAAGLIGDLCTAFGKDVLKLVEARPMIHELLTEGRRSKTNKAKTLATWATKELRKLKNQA
T3 sequence (Q14974 other isoform, or with tags, fused parts or gaps): as above
T2 sequence (Q14974 whole entry): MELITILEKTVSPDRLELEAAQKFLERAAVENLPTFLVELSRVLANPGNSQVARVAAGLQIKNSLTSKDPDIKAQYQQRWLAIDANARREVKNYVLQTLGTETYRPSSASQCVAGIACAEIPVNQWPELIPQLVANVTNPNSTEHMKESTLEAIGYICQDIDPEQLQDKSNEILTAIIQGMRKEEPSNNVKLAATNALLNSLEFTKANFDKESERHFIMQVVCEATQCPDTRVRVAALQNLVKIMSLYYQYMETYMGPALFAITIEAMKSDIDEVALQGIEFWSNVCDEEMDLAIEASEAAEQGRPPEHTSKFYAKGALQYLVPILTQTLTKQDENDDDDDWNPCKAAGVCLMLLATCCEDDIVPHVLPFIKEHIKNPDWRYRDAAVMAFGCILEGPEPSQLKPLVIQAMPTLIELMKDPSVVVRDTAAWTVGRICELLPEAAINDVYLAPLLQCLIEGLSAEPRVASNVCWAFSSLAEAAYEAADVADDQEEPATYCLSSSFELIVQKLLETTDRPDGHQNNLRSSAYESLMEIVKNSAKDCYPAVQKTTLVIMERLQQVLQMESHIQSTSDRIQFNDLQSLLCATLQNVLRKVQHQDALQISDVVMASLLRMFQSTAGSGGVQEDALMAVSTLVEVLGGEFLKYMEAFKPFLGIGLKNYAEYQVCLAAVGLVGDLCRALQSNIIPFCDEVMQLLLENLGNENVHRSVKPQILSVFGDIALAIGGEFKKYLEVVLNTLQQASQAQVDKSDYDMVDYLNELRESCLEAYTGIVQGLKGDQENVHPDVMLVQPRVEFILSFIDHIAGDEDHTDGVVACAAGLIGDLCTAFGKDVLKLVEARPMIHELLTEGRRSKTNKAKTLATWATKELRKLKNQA

B1: endogenous Nup50 (other, human, UniProt Q9UKX7 1-468, looked up)
chain: MAKRNAEKELTDRNWDQEDEAEEVGTFSMASEEVLKNRAIKKAKRRNVGFESDTGGAFKGFKGLVVPSGGGRFSGFGSGAGGKPLEGLSNGNNITSAPPFASAKAAADPKVAFGSLAANGPTTLVDKVSNPKTNGDSQQPSSSGLASSKACVGNAYHKQLAALNCSVRDWIVKHVNTNPLCDLTPIFKDYEKYLANIEQQHGNSGRNSESESNKVAAETQSPSLFGSTKLQQESTFLFHGNKTEDTPDKKMEVASEKKTDPSSLGATSASFNFGKKVDSSVLGSLSSVPLTGFSFSPGNSSLFGKDTTQSKPVSSPFPTKPLEGQAEGDSGECKGGDEEENDEPPKVVVTEVKEEDAFYSKKCKLFYKKDNEFKEKGIGTLHLKPTANQKTQLLVRADTNLGNILLNVLIPPNMPCTRTGKNNVLIVCVPNPPIDEKNATMPVTMLIRVKTSEDADELHKILLEKKDA
notes: Detected with anti-Nup50
With B1, the binding result in test [1] is “binds”.

B2: endogenous Nup62 (other, human, UniProt P37198 2-522, looked up)
chain: SGFNFGGTGAPTGGFTFGTAKTATTTPATGFSFSTSGTGGFNFGAPFQPATSTPSTGLFSLATQTPATQTTGFTFGTATLASGGTGFSLGIGASKLNLSNTAATPAMANPSGFGLGSSNLTNAISSTVTSSQGTAPTGFVFGPSTTSVAPATTSGGFSFTGGSTAQPSGFNIGSAGNSAQPTAPATLPFTPATPAATTAGATQPAAPTPTATITSTGPSLFASIATAPTSSATTGLSLCTPVTTAGAPTAGTQGFSLKAPGAASGTSTTTSTAATATATTTSSSSTTGFALNLKPLAPAGIPSNTAAAVTAPPGPGAAAGAAASSAMTYAQLESLINKWSLELEDQERHFLQQATQVNAWDRTLIENGEKITSLHREVEKVKLDQKRLDQELDFILSQQKELEDLLSPLEELVKEQSGTIYLQHADEEREKTYKLAENIDAQLKRMAQDLKDIIEHLNTSGAPADTSDPLQQICKILNAHMDSLQWIDQNSALLQRKVEEVTKVCEGRRKEQERSFRITFD
notes: Detected with anti-Nup62
Turning to B2, the binding result in test [1] is given as “binds”.

B3: GFP-TDP-CTF non-PrLD (other, human)
chain: GGGSGGGSGGGSREFFSQYGDVMDVFIPKPFRAFAFVTFADDQIAQSLCGEDLIIKGISVHISNAEPKHNSNRQLERSG
notes: not shown: GFP/EGFP tag (pEGFP-C1, Clontech)
In the case of B3, in the test with Untagged KPNB1, the binding result was “binds”.

B4: GFP-TDP-CTF 208-239 (other, human)
chain: {GFP}-GGGSGGGSGGGSREFFSQYGDVMDVFIPKPFRAFAFVTFADDQI
modifications: also: GFP tag fused N-terminally, not in chain, (GGGS)3 linker in chain
notes: as for B3
B4: the binding result with mCherry-KPNB1 was “binds”.

The record behind these values is US20240226230A1 (MAYO FOUNDATION FOR MEDICAL EDUCATION AND RESEARCH, published 2024).
